Measured values published in the supplement of paper PMC12764529.
± gives the half width of the 95% confidence interval.

Assay: folding stability dG unfold from chymotrypsin proteolysis; higher = more stable
Method: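 Folding stability of de novo designed mini-proteins (<80 aa, no Cys; designed by TrROS, TrMRF, ProteinMPNN and the joint model) was measured by cDNA display proteolysis with trypsin and chymotrypsin. Each protease was used at 11 concentrations in a threefold dilution series plus a no-protease condition. K50 was inferred by Bayesian fitting of sequencing counts, and dG unfold was derived against a sequence-predicted unfolded-state K50 (Tsuboyama et al. method). Sequences shown include variable-length N-terminal GS-type padding (SAGGSAGG...) inside a display construct carrying a PA tag. Rows were kept only if the AF2 dimer inter-PAE was >15, to exclude likely homo-oligomers.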

Row | Sequence | folding stability dG unfold
1 | SAGGSAGGSAGGMPPEETVTVTIVESKPVPDPEGNPVEPLPVKTTTITVPASNPEALAAKSAGGSAGGSAGG [r7_439_JUSTAS] | 0.00655 ± 0.072 kcal/mol
2 | SAGKTVKVTVEKEVTLENGNKVTVKVEKTVELKPPPPKKITLSPEEIEEIDKETGEIRNKKTNKVFKIKSAG [r5_807_TrROS_Hall] | -0.0446 ± 0.37 kcal/mol
3 | SAGGMAEELAKLLKELFPDEEVEVEVKVEEKEVNGKKYLTITVTVRNKKTGKKIKEIKLVIELPEEESAGGS [r8_207_TrROS_Hall] | 4.23 ± 0.32 kcal/mol
4 | SAGGSAARVVEEIPGVGLLIAKPPTSDEPEIVLSLAELEEARRRSGVPPELAALIAANPDLTLELVSAGGSA [r15_359_JUSTAS] | -0.297 ± 0.43 kcal/mol
5 | SAGGSAGGSGYSVSVSEDFSSSPETRTVTTTTTSPSSGPLVTTTTTTTSPIPPRTPAEVAAAASAGGSAGGS [r12_841_JUSTAS] | 0.697 ± 0.029 kcal/mol
6 | SAGGSAGGSAGGSGGVTVSQYEGGKATRTVTSFDPVNNSTSTTTTTTFTIPPDEPVTVSSAGGSAGGSAGGS [r10_1153_JUSTAS] | 0.236 ± 0.2 kcal/mol
7 | SAGGMESPVKAVDPSTGAERSFTIPREEAEALLAAGETTIEIPYSGGPMTVEITPLPDGTYAITGKAPSAGG [r13_171_JUSTAS] | 0.206 ± 0.24 kcal/mol
8 | SPEFKIAEVRVEAFPDGTVKAEVRFEGGTETAVFDAPVDPETGVVPVRARIYNPETGEVSEFTATGRIGASA [r9_825_TrMRF] | 0.0658 ± 0.16 kcal/mol
9 | SAGGSAGGSMTVTLSYPDGSTVTRPLEGKSLEEAIAALPEDVTEVQVTVLEGSTPVTRTVPRPSAGGSAGGS [r12_767_JUSTAS] | 0.731 ± 0.023 kcal/mol
10 | SAGGSAGGSAGGSPFEGPRPVVVKPVSPEILAKTPPEEVKKRLKEELPESVTIVETNPLPSAGGSAGGSAGG [r7_487_JUSTAS] | 0.12 ± 0.1 kcal/mol
11 | SAGGMTVTIESVERLPGGVEVRRMVIETLDPNNPTPSTVERELVTEFTPSVDPEGRPGRLARREEVLGSAGG [r13_612_JUSTAS] | 0.0887 ± 0.12 kcal/mol
12 | SAGGSAGGSMTPVHVYVPPSLSPEEARARVRAELRAALPAAEADVPLEDVEVVLRPLPPDVPLSAGGSAGGS [r12_384_JUSTAS] | 0.303 ± 0.42 kcal/mol
13 | SAGGSAGGSAGIIEFPFPLNEAKKLAENLPPGFRPVNVEPDPDNDRIWVIIQVVPPKKGKSAGGSAGGSAGG [r17_98_TrROS] | -0.992 ± 0.73 kcal/mol
14 | SAGESTLELTETSFPDGTTARVTTTRYPGLVRREATVTLPDGTVERLSAEVTLDEDEEVVTTSRSPLPSAGG [r19_385_JUSTAS] | -0.247 ± 0.13 kcal/mol
15 | SAGGSAGGSAITIKELAKEGYTIEIRPPDGKKETFKPGDSVDDPAEEFDLPPNWRIEIRPPSAGGSAGGSAG [r3_216_TrROS] | -0.382 ± 0.3 kcal/mol
16 | SAGGSAENLVRTTRTTEALPDGGTRTTTTTTLPGGLTVVTRPYYDPATGTTATTTTTLAPDETVTDSAGGSA [r15_917_JUSTAS] | 0.447 ± 0.05 kcal/mol
17 | SAMPITVTVKKTVTLPPPGPEHQKLLDPNGTVRTVTVEETETITVSPEEIEKVKEEAEAKGIEEVTVVDSAG [r14_509_JUSTAS] | 0.732 ± 0.051 kcal/mol
18 | KDFGITFKSPETIEEIAKKLGPNVVPTDIKKDPKGYVYAKIPTPDGKETDIVIPADKYSYEEAVKFAKEAES [r1_279_TrMRF] | 0.228 ± 0.16 kcal/mol
19 | SAGDKYRIKMTNPNGKKIEFEIPPNGYIKVRIRNPNNEHEMTIPIPPGETIEEALDNFPPYKISEIEPVSAG [r5_259_TrROS] | 0.795 ± 0.1 kcal/mol
20 | SAGGSIPAEELAAALAALPELPAAEVEVVVEERPDEVVVDVRFADPEHPRHVALLRRAERLLAEAASAGGSA [r2_3_TrMRF] | 0.373 ± 0.3 kcal/mol
21 | SAGGSAMVIDSKEVLEDDVLVTTTAITVDPSTGIKTEDVEEKPVPLPDGTPLPPRKTTRTTPLANASAGGSA [r15_623_JUSTAS] | 0.784 ± 0.025 kcal/mol
22 | SAGGSAGGSAGDNGPLVIEVDISPDALADAVKNNKPLNANVRIYRPDGSPGGVFDLLIPASAGGSAGGSAGG [r11_26_TrMRF] | 0.217 ± 0.076 kcal/mol
23 | SAGGMKLTLTFTETSVLPDGTPVTTTSTTPLSPDVPVEEVAAALAETNPDVTVTVHEPSTGSTRTLRTSAGG [r13_663_JUSTAS] | 0.0497 ± 0.13 kcal/mol
24 | SAGGSAGGPMKPVEYEIPLPGRPITIEVNPPYGYIDIEWPPNGKERTVPMSPGQSAEDILKELFSAGGSAGG [r6_166_TrROS] | -1.41 ± 0.32 kcal/mol

Row | Sequence | folding stability dG unfold
25 | SAGGSAGGSAGGSGPEELAAAARAAHPELGAPVRVEVTYTPEAGEFPVRVFLPEDGAALSAGGSAGGSAGGS [r4_312_JUSTAS] | -0.335 ± 0.14 kcal/mol
26 | SAGGSAGGSAGGTLIKTSDDTIVIPIGDPEEAEKAAEEIKAKLGDVDLKVEILSPEELRGSAGGSAGGSAGG [r7_645_JUSTAS] | 0.487 ± 0.032 kcal/mol
27 | SAGGSALTAKEARELVRNYAREHNPDYKVKGIEVERLPDKWVHADIEVRPPENPGQEHEWSIWIPYSAGGSA [r15_627_TrROS] | -0.418 ± 0.33 kcal/mol
28 | SAGTKTIMGRPDDLPEAIEEALDKGPDLKKVKIYWGGREREIPLGDKIKITEPMPNPNGPPFMMIEIEDSAG [r5_130_TrROS] | -0.486 ± 0.38 kcal/mol
29 | SAGGSAGGSPAIRVERDPETDVLLAEIGHPDGVPALARISPATGTVTVLEGGKLVEVPLPEIGSAGGSAGGS [r12_650_TrMRF] | 0.627 ± 0.018 kcal/mol
30 | SAGGGNPPVLKIELTKTYHPPDGTKVELYRVEHPVEPREIYIVKTYPDDGAEEVKIVKEEELKEALKSAGGS [r8_421_JUSTAS] | 0.771 ± 0.36 kcal/mol
31 | SAGGSAGGSAGGTKELAEALRDAGYEVEYDKATNKIEVRPKPKPKPVVKTVTFVPKEDLSAGGSAGGSAGGS [r10_1173_TrROS_Hall] | -0.433 ± 0.11 kcal/mol
32 | SAGGPPDKSVTVTVTDEKGNPITYPVTASKPVPVYLDDPEKKLEFTVPPDSDFTAPVPPGRVSVDLRSAGGS [r16_456_JUSTAS] | 0.637 ± 0.046 kcal/mol
33 | SAGGSSPPTTTRTFAHPDGRTTELTVPTLPDGTPVVTTTTGGTTTTLSLSQLEKLPSSWTFTSTSSSAGGSA [r2_431_JUSTAS] | -0.27 ± 0.24 kcal/mol
34 | SAGGPNPKTVEIPSPGTPEDVRARVEELAAELRPRGRPVTVTVTVGSTPRTLALAEVASVPPDATATVGSAG [r5_626_JUSTAS] | -0.933 ± 0.4 kcal/mol
35 | SAGPLVITVEETDGTVTITIYDAETGEKIAEFTFPKGAEVTIEDGYITIRNKETGETFVFKLPDGVKPSAGG [r19_4_TrROS_Hall] | 6.34 ± 0.27 kcal/mol
36 | SAGGSAGGSAGGMVPGETVTITIPVPPTGKEVPVEISTTLPPEEREALAEAKAAELEAALSAGGSAGGSAGG [r7_957_JUSTAS] | 0.602 ± 0.025 kcal/mol
37 | SAEKVTLTITVKMTEEELKEIAEKVGMKVEITVEKEEDGLYRVTLTFETPEEAEKAREALEKAGYKVEPSAG [r14_745_TrROS_Hall] | 4.57 ± 0.14 kcal/mol
38 | SAGGSAGGSAGGEPEPIPIKVKIYNPEDGKKREVDFWIPYGNIKEVLKELMPKGYKVEIESAGGSAGGSAGG [r7_230_TrROS] | -0.281 ± 0.23 kcal/mol
39 | SAGGSAGGSAGGMPVSVETKLIEKDPVEDVEISLETFPGTDLRVIVTKTKNEVKKTVIPKSAGGSAGGSAGG [r17_370_JUSTAS] | -0.252 ± 0.13 kcal/mol
40 | SAGGSAGGSAKNTASLKKDDGFVAYNPKTGKYVAEVEVVKDDKDNIDLPLPNGDEVEIDAVGSAGGSAGGSA [r18_363_TrMRF] | -0.54 ± 0.42 kcal/mol
41 | SAGGSAGGSPPVIHPMTVTTLAYDPATGVVDVLVDDKGKDPAVREAAEAAARAAGHPVEVVPRSAGGSAGGS [r20_157_JUSTAS] | -0.637 ± 0.34 kcal/mol
42 | SAGGSAGGSAGGGSMILNVRTVVEEDFPINDRRKVTVLDPVVLVPAVAFDPSTGKATPVSAGGSAGGSAGGS [r10_815_JUSTAS] | 0.667 ± 0.085 kcal/mol
43 | SAGGSAGGSAAVVVNATPDDGFTIYDPATGERLADAEVTKTNGDSLNLPHPDGRAVAVDPRKSAGGSAGGSA [r18_363_JUSTAS] | 0.231 ± 0.084 kcal/mol
44 | SAGGSMLTVDYTVSPDVDLEEALAAVAEEVRAALLAETGGPVAVDVRPVSRPPDGTVRIRVDVALESAGGSA [r2_214_JUSTAS] | 0.991 ± 0.028 kcal/mol
45 | SAGGGTVVDPGPRVVTITVRPPDGKPRTITLPLPDATPEEIRARLEAVAAALPEAGATVDVLDIRPLPSAGG [r13_29_JUSTAS] | 0.941 ± 0.024 kcal/mol
46 | SAGGLSVSSVSTGSDKITVTVTGSGSPVATVEIPPGLPNTEVTATVLPDGSVRVELKTGNTPRTIEVPLSAG [r5_533_JUSTAS] | -0.445 ± 0.14 kcal/mol
47 | SAGGSAGGSAGGSSVSVSFDPATGTRTVTYTTLDPSNGKILSSTTSTTAVALAATPAAASAGGSAGGSAGGS [r10_842_JUSTAS] | 0.661 ± 0.058 kcal/mol
